Data reported in paper PMC6555819, “Comprehensive study of nuclear receptor DNA binding provides a revised framework for understanding receptor specificity”.

B1: NRC3_wobSeed65_DR2_A5T_o1 (dsDNA)
DNA 1: GCATTTGTAGGTTATCGGGTCATTCAGTTTGCGCATGCGATTGACAGCGTAGAATGAAGG
DNA 2: CCTTCATTCTACGCTGTCAATCGCATGCGCAAACTGAATGACCCGATAACCTACAAATGC
B2: NRC3_wobSeed10_DR0_A7G_o1 (dsDNA)
DNA 1: GCATCGGAAGGTCGAGGTGAGTATAGAGAAAGGGAAGCGATTGACAGCGTAGAATGAAGG
DNA 2: CCTTCATTCTACGCTGTCAATCGCTTCCCTTTCTCTATACTCACCTCGACCTTCCGATGC
B3: NRC3_wobSeed51_DR2_G25T_o1 (dsDNA)
DNA 1: GCCCTCGGAGGACAGAAGGTCAGATCTGTCCGCTTTGCGATTGACAGCGTAGAATGAAGG
DNA 2: CCTTCATTCTACGCTGTCAATCGCAAAGCGGACAGATCTGACCTTCTGTCCTCCGAGGGC
B4: NRC3_wobSeed9_DR0_T22C_o1 (dsDNA)
DNA 1: GCATCTCTAGGTAAAGTTCAGCGAAAGATCGATAGAGCGATTGACAGCGTAGAATGAAGG
DNA 2: CCTTCATTCTACGCTGTCAATCGCTCTATCGATCTTTCGCTGAACTTTACCTAGAGATGC
B5: NRC3_wobSeed30_DR1_G17A_o1 (dsDNA)
DNA 1: GCACTAGCAGGCCAAGAGTCACTCAAGATTAGTCCGGCGATTGACAGCGTAGAATGAAGG
DNA 2: CCTTCATTCTACGCTGTCAATCGCCGGACTAATCTTGAGTGACTCTTGGCCTGCTAGTGC
B6: NRC3_wobSeed136_DR5_A14C_o1 (dsDNA)
DNA 1: GCTAGCCTAGGTCCTTCAGGGGCCAGTATAGAAAGCGCGATTGACAGCGTAGAATGAAGG
DNA 2: CCTTCATTCTACGCTGTCAATCGCGCTTTCTATACTGGCCCCTGAAGGACCTAGGCTAGC
B7: NRC3_wobSeed41_DR1_G11C_o1 (dsDNA)
DNA 1: GCATATGTAGCTTAAGGGTCATTCAGGTTGGTTCGCGCGATTGACAGCGTAGAATGAAGG
DNA 2: CCTTCATTCTACGCTGTCAATCGCGCGAACCAACCTGAATGACCCTTAAGCTACATATGC
B8: NRC3_wobSeed4_DR0_A24C_o1 (dsDNA)
DNA 1: GCCCTACTGGGCCAAGGTCATTGCTCAGTCAAAGCAGCGATTGACAGCGTAGAATGAAGG
DNA 2: CCTTCATTCTACGCTGTCAATCGCTGCTTTGACTGAGCAATGACCTTGGCCCAGTAGGGC
B9: NRC3_wobSeed4_DR0_C13G_o1 (dsDNA)
DNA 1: GCCCTACTGGGCGAAGGTCATTGATCAGTCAAAGCAGCGATTGACAGCGTAGAATGAAGG
DNA 2: CCTTCATTCTACGCTGTCAATCGCTGCTTTGACTGATCAATGACCTTCGCCCAGTAGGGC
B10: NRC3_wobSeed114_DR4_T12A_o1 (dsDNA)
DNA 1: GCAATACAGGGACATCGTAGGCCAGAGTACGCACAGGCGATTGACAGCGTAGAATGAAGG
DNA 2: CCTTCATTCTACGCTGTCAATCGCCTGTGCGTACTCTGGCCTACGATGTCCCTGTATTGC
B11: NRC3_wobSeed106_DR4_G25C_o1 (dsDNA)
DNA 1: GCCTCGAAAGGTCGGTTGAGGTGACTATACGGATAAGCGATTGACAGCGTAGAATGAAGG
DNA 2: CCTTCATTCTACGCTGTCAATCGCTTATCCGTATAGTCACCTCAACCGACCTTTCGAGGC
B12: NRC3_wobSeed46_DR1_A5T_o1 (dsDNA)
DNA 1: GCTTTCCAAGGTGAAAGGTCGTTGATGCACGCCTTGGCGATTGACAGCGTAGAATGAAGG
DNA 2: CCTTCATTCTACGCTGTCAATCGCCAAGGCGTGCATCAACGACCTTTCACCTTGGAAAGC
B13: NRC3_wobSeed46_DR1_C7G_o1 (dsDNA)
DNA 1: GCTTACGAAGGTGAAAGGTCGTTGATGCACGCCTTGGCGATTGACAGCGTAGAATGAAGG
DNA 2: CCTTCATTCTACGCTGTCAATCGCCAAGGCGTGCATCAACGACCTTTCACCTTCGTAAGC
B14: NRC3_wobSeed46_DR1_T26A_o1 (dsDNA)
DNA 1: GCTTACCAAGGTGAAAGGTCGTTGAAGCACGCCTTGGCGATTGACAGCGTAGAATGAAGG
DNA 2: CCTTCATTCTACGCTGTCAATCGCCAAGGCGTGCTTCAACGACCTTTCACCTTGGTAAGC
B15: NRC3_wobSeed46_DR1_T26G_o1 (dsDNA)
DNA 1: GCTTACCAAGGTGAAAGGTCGTTGAGGCACGCCTTGGCGATTGACAGCGTAGAATGAAGG
DNA 2: CCTTCATTCTACGCTGTCAATCGCCAAGGCGTGCCTCAACGACCTTTCACCTTGGTAAGC
B16: NRC3_wobSeed72_DR2_G5A_o1 (dsDNA)
DNA 1: GCTCAAGTAGGTTACGGGGGCATTCAGGGATGAAGAGCGATTGACAGCGTAGAATGAAGG
DNA 2: CCTTCATTCTACGCTGTCAATCGCTCTTCATCCCTGAATGCCCCCGTAACCTACTTGAGC
B17: NRC3_wobSeed89_DR3_T13A_o1 (dsDNA)
DNA 1: GCCTATGTAGGTAAAGGGGGTCATTCAGTTTGAAAGGCGATTGACAGCGTAGAATGAAGG
DNA 2: CCTTCATTCTACGCTGTCAATCGCCTTTCAAACTGAATGACCCCCTTTACCTACATAGGC
B18: NRC3_wobSeed90_DR3_A8C_o1 (dsDNA)
DNA 1: GCCATACCGGGTCAGCTAGGCCAGAGTAGGGACGGCGCGATTGACAGCGTAGAATGAAGG
DNA 2: CCTTCATTCTACGCTGTCAATCGCGCCGTCCCTACTCTGGCCTAGCTGACCCGGTATGGC
B19: NRC3_wobSeed124_DR5_T5G_o1 (dsDNA)
DNA 1: GCCCGACTGGGCCATTCAGAGGTCATTGATCATATGGCGATTGACAGCGTAGAATGAAGG
DNA 2: CCTTCATTCTACGCTGTCAATCGCCATATGATCAATGACCTCTGAATGGCCCAGTCGGGC
B20: NRC3_wobSeed124_DR5_T23A_o1 (dsDNA)
DNA 1: GCCCTACTGGGCCATTCAGAGGACATTGATCATATGGCGATTGACAGCGTAGAATGAAGG
DNA 2: CCTTCATTCTACGCTGTCAATCGCCATATGATCAATGTCCTCTGAATGGCCCAGTAGGGC
B21: NRC3_wobSeed69_DR2_A7C_o1 (dsDNA)
DNA 1: GCAGTCCAAGTTCACTAGGTAACGTAAGATTCAGCTGCGATTGACAGCGTAGAATGAAGG
DNA 2: CCTTCATTCTACGCTGTCAATCGCAGCTGAATCTTACGTTACCTAGTGAACTTGGACTGC
B22: NRC3_wobSeed69_DR2_A8T_o1 (dsDNA)
DNA 1: GCAGTCATAGTTCACTAGGTAACGTAAGATTCAGCTGCGATTGACAGCGTAGAATGAAGG
DNA 2: CCTTCATTCTACGCTGTCAATCGCAGCTGAATCTTACGTTACCTAGTGAACTATGACTGC
B23: NRC3_wobSeed5_DR0_G9C_o1 (dsDNA)
DNA 1: GCCCTTACCGGTCAAGGTTATAGCACGGGTGGTACGGCGATTGACAGCGTAGAATGAAGG
DNA 2: CCTTCATTCTACGCTGTCAATCGCCGTACCACCCGTGCTATAACCTTGACCGGTAAGGGC
B24: NRC3_wobSeed111_DR4_G25T_o1 (dsDNA)
DNA 1: GCCGAACTAGGTCAGAACAGGACATTGAAGGATGATGCGATTGACAGCGTAGAATGAAGG
DNA 2: CCTTCATTCTACGCTGTCAATCGCATCATCCTTCAATGTCCTGTTCTGACCTAGTTCGGC
B25: NRC3_wobSeed111_DR4_G27T_o1 (dsDNA)
DNA 1: GCCGAACTAGGTCAGAACAGGACAGTTAAGGATGATGCGATTGACAGCGTAGAATGAAGG
DNA 2: CCTTCATTCTACGCTGTCAATCGCATCATCCTTAACTGTCCTGTTCTGACCTAGTTCGGC
B26: NRC3_wobSeed111_DR4_G21T_o1 (dsDNA)
DNA 1: GCCGAACTAGGTCAGAACAGTACAGTGAAGGATGATGCGATTGACAGCGTAGAATGAAGG
DNA 2: CCTTCATTCTACGCTGTCAATCGCATCATCCTTCACTGTACTGTTCTGACCTAGTTCGGC
B27: NRC3_wobSeed86_DR3_T17A_o1 (dsDNA)
DNA 1: GCGCTGCTAGGTCAGGATGGTCAGCTAACGGGTACGGCGATTGACAGCGTAGAATGAAGG
DNA 2: CCTTCATTCTACGCTGTCAATCGCCGTACCCGTTAGCTGACCATCCTGACCTAGCAGCGC
B28: NRC3_wobSeed86_DR3_G24A_o1 (dsDNA)
DNA 1: GCGCTGCTAGGTCAGGTTGGTCAACTAACGGGTACGGCGATTGACAGCGTAGAATGAAGG
DNA 2: CCTTCATTCTACGCTGTCAATCGCCGTACCCGTTAGTTGACCAACCTGACCTAGCAGCGC
B29: NRC3_wobSeed86_DR3_A23T_o1 (dsDNA)
DNA 1: GCGCTGCTAGGTCAGGTTGGTCTGCTAACGGGTACGGCGATTGACAGCGTAGAATGAAGG
DNA 2: CCTTCATTCTACGCTGTCAATCGCCGTACCCGTTAGCAGACCAACCTGACCTAGCAGCGC
B30: NRC3_wobSeed86_DR3_A23G_o1 (dsDNA)
DNA 1: GCGCTGCTAGGTCAGGTTGGTCGGCTAACGGGTACGGCGATTGACAGCGTAGAATGAAGG
DNA 2: CCTTCATTCTACGCTGTCAATCGCCGTACCCGTTAGCCGACCAACCTGACCTAGCAGCGC
B31: NRC3_wobSeed75_DR3_C6A_o1 (dsDNA)
DNA 1: GCTCTAGGAGGACACGAAGGTCAGAGCTTTCCAGAGGCGATTGACAGCGTAGAATGAAGG
DNA 2: CCTTCATTCTACGCTGTCAATCGCCTCTGGAAAGCTCTGACCTTCGTGTCCTCCTAGAGC
B32: NRC3_wobSeed98_DR4_C13A_o1 (dsDNA)
DNA 1: GCACTAGTTGGTAAGCTGAGGTCACACACAATTCGGGCGATTGACAGCGTAGAATGAAGG
DNA 2: CCTTCATTCTACGCTGTCAATCGCCCGAATTGTGTGTGACCTCAGCTTACCAACTAGTGC
B33: NRC3_wobSeed98_DR4_G11C_o1 (dsDNA)
DNA 1: GCACTAGTTGCTCAGCTGAGGTCACACACAATTCGGGCGATTGACAGCGTAGAATGAAGG
DNA 2: CCTTCATTCTACGCTGTCAATCGCCCGAATTGTGTGTGACCTCAGCTGAGCAACTAGTGC

Target: RARb:RXRa (Homo sapiens, UniProt P10826;P19793 full;full)
Sequence (P10826 whole entry, chain 1 of 2): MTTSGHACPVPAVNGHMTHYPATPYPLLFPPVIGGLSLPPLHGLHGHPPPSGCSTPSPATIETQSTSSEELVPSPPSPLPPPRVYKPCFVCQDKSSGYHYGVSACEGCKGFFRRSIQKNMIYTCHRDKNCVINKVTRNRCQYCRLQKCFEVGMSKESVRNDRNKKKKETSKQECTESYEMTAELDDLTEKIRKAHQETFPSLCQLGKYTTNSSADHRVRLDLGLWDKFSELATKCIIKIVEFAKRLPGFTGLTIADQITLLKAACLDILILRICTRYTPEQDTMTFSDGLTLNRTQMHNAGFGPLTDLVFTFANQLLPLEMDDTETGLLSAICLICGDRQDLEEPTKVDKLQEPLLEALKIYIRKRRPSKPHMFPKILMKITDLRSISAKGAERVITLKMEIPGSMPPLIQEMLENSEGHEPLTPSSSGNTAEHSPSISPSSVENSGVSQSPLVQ
Sequence (P19793 whole entry, chain 2 of 2): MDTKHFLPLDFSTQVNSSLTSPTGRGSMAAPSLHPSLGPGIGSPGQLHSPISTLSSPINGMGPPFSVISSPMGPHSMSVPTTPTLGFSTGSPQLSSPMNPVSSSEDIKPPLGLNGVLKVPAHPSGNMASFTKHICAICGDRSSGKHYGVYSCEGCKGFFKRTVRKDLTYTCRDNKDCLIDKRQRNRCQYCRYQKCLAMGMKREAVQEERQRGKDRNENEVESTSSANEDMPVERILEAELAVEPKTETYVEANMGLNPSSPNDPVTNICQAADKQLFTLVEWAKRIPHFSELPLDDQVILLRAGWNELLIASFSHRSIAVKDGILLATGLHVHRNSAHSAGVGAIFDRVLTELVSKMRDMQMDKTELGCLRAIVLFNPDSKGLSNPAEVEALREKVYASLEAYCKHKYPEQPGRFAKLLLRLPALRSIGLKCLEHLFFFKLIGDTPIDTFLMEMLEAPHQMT
Test: no ligand; PBM; 270 nM : 90 nM RXRa; PBS pH 7.4, 2% milk, 0.02% Triton X-100, 1 mM DTT, BSA, 0.4 mg/ml salmon testes DNA
Conditions: tags: His kept;His cleaved; copies: 1;1; label: surface-attached array probe
Procedure, shortened: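 Ligand-free nuclear receptor dimers were bound for 1 h to custom Agilent 4×180K protein-binding microarrays. Detection used antibodies against each partner (one per run). Binding z-scores rest on regression-normalized fluorescence, with random background probes as the reference.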

| Binder | binding signal |
| --- | --- |
| B1 | 3 PBM z-score against 500 random probes |
| B2 | 3 PBM z-score against 500 random probes |
| B3 | 3.07 PBM z-score against 500 random probes |
| B4 | 3.07 PBM z-score against 500 random probes |
| B5 | 0.46 PBM z-score against 500 random probes |
| B6 | 0.43 PBM z-score against 500 random probes |
| B7 | 3.04 PBM z-score against 500 random probes |
| B8 | 3.07 PBM z-score against 500 random probes |
| B9 | 3.03 PBM z-score against 500 random probes |
| B10 | 0.47 PBM z-score against 500 random probes |
| B11 | 3.02 PBM z-score against 500 random probes |
| B12 | 3.06 PBM z-score against 500 random probes |
| B13 | 3.05 PBM z-score against 500 random probes |
| B14 | 3.02 PBM z-score against 500 random probes |
| B15 | 3.01 PBM z-score against 500 random probes |
| B16 | 3.05 PBM z-score against 500 random probes |
| B17 | 3.02 PBM z-score against 500 random probes |

| Binder | binding signal |
| --- | --- |
| B18 | 3.04 PBM z-score against 500 random probes |
| B19 | 3.03 PBM z-score against 500 random probes |
| B20 | 0.46 PBM z-score against 500 random probes |
| B21 | 3.03 PBM z-score against 500 random probes |
| B22 | 3.02 PBM z-score against 500 random probes |
| B23 | 3.08 PBM z-score against 500 random probes |
| B24 | 3.08 PBM z-score against 500 random probes |
| B25 | 3.03 PBM z-score against 500 random probes |
| B26 | 3.01 PBM z-score against 500 random probes |
| B27 | 3.06 PBM z-score against 500 random probes |
| B28 | 3.06 PBM z-score against 500 random probes |
| B29 | 3.05 PBM z-score against 500 random probes |
| B30 | 3.01 PBM z-score against 500 random probes |
| B31 | 3.07 PBM z-score against 500 random probes |
| B32 | 3.06 PBM z-score against 500 random probes |
| B33 | 3.01 PBM z-score against 500 random probes |
